Assay results: the Human Domainome abundance scans (Beltran et al. 2025)
± gives the uncertainty stated by the source.

B1: Histone-lysine N-methyltransferase SETD2, residues 2382 to 2430; numbered along this chain, Q9BYW2 (parent)
chain: SPPKPKTIVLPPNWKTARDPEGKIYYYHVITRQTQWDPPTWESPGDDAS

Variants of: B1
Test: abundance fitness (aPCA) (normalised: wild type 0, dead -1); higher = more abundant; growth selection in yeast, the domain comes from the species named
Conditions: Homo sapiens

Abundance fitness of substitutions, site by site:
P11: Q -0.186 ± 0.084 | V -0.689 ± 0.11 | W -0.811 ± 0.12 | Y -0.666 ± 0.18 | S -0.453 ± 0.11 | T -0.682 ± 0.13
P20: S -0.106 ± 0.036 | T 0.006 ± 0.033 | M -0.078 ± 0.034 | F -0.398 ± 0.059 | E -0.074 ± 0.053 | C -0.348 ± 0.043 | Q 0.015 ± 0.045 | K 0.122 ± 0.039 | H -0.157 ± 0.038 | G -0.03 ± 0.031 | A -0.166 ± 0.031 | W -0.367 ± 0.054 | D -0.122 ± 0.038 | Y -0.331 ± 0.052 | I -0.165 ± 0.045 | V -0.31 ± 0.033 | L -0.223 ± 0.032 | N -0.008 ± 0.035 | R 0.017 ± 0.032
E21: C -0.134 ± 0.11 | F -0.115 ± 0.17 | Y -0.552 ± 0.18 | L -0.487 ± 0.035 | A -0.126 ± 0.065 | P -0.989 ± 0.14 | I -0.316 ± 0.21 | D -0.136 ± 0.12 | T -0.229 ± 0.095 | K 0.134 ± 0.068 | G -0.003 ± 0.035 | S 0.098 ± 0.039 | Q -0.217 ± 0.063 | V -0.275 ± 0.093 | R -0.043 ± 0.053 | M -0.059 ± 0.06 | H -0.737 ± 0.28 | W -0.345 ± 0.048
N13: L -0.039 ± 0.049 | P -0.692 ± 0.084 | A -0.581 ± 0.067 | Y 0.107 ± 0.075 | C -0.292 ± 0.056 | T -0.123 ± 0.078 | W -0.144 ± 0.097 | E -0.61 ± 0.15 | S -0.362 ± 0.078 | H -0.052 ± 0.039 | M 0.064 ± 0.094 | F 0.127 ± 0.082 | Q -0.148 ± 0.13 | D -0.059 ± 0.075 | G -0.191 ± 0.055 | V -0.523 ± 0.075
W14: V -0.882 ± 0.097 | S -0.925 ± 0.1 | D -0.74 ± 0.36 | E -0.868 ± 0.078 | L -0.925 ± 0.06 | H -0.615 ± 0.22 | A -0.865 ± 0.054 | C -1.02 ± 0.3 | Y -0.566 ± 0.42 | T -0.935 ± 0.19 | Q -0.763 ± 0.24 | P -1.03 ± 0.32 | M -0.721 ± 0.2 | G -0.855 ± 0.086
P12: A 0.153 ± 0.048 | M -0.007 ± 0.036 | F -0.402 ± 0.13 | D -0.013 ± 0.076 | I -0.451 ± 0.16 | E 0.105 ± 0.084 | K 0.048 ± 0.073 | S -0.195 ± 0.08 | W -0.309 ± 0.062 | R 0.009 ± 0.045 | G -0.398 ± 0.039 | C -0.844 ± 0.23 | Q -0.238 ± 0.09 | H -0.528 ± 0.21 | T 0.092 ± 0.062
G22: E -1.1 ± 0.19 | K -0.482 ± 0.076 | F -0.733 ± 0.36 | A -0.844 ± 0.12 | C -0.882 ± 0.17 | H -0.484 ± 0.16 | D -0.128 ± 0.079 | I -0.753 ± 0.29
R18: L -0.404 ± 0.045 | T -0.112 ± 0.055 | G -0.79 ± 0.095 | I -0.095 ± 0.15 | N 0.099 ± 0.2 | Q -0.482 ± 0.14 | M -0.086 ± 0.059 | D -0.817 ± 0.31 | W -0.31 ± 0.095 | E -0.248 ± 0.1 | V -0.26 ± 0.066 | S -0.543 ± 0.035 | P -0.576 ± 0.17 | A -0.467 ± 0.07 | F -0.424 ± 0.094 | Y -0.105 ± 0.062 | K -0.072 ± 0.062 | H -0.286 ± 0.26
D19: S -0.103 ± 0.043 | Q -0.442 ± 0.039 | Y -0.601 ± 0.095 | L -0.407 ± 0.068 | V -0.404 ± 0.048 | T 0.102 ± 0.069 | P -0.426 ± 0.1 | I -0.584 ± 0.26 | C -0.725 ± 0.16 | W -0.889 ± 0.095 | E -0.314 ± 0.08 | R -0.535 ± 0.042 | M -0.172 ± 0.089 | H 0.027 ± 0.2 | A -0.537 ± 0.096
K15: R 0.11 ± 0.39 | H -0.153 ± 0.41 | Q -0.291 ± 0.26
T16: W -0.026 ± 0.052 | H 0.095 ± 0.11 | Q 0.136 ± 0.064 | C -0.213 ± 0.12 | P -0.341 ± 0.12 | G -0.203 ± 0.057 | R -0.052 ± 0.045 | K -0.059 ± 0.092 | N -0.723 ± 0.15 | A 0.027 ± 0.041 | M 0.218 ± 0.039 | L 0.049 ± 0.048 | S 0.168 ± 0.035 | I -0.15 ± 0.075 | D -0.47 ± 0.091 | Y -0.164 ± 0.1
A17: E -0.301 ± 0.061 | K -0.131 ± 0.1 | R 0.023 ± 0.036 | T -0.217 ± 0.074 | C -0.146 ± 0.078 | W -0.77 ± 0.13 | Y -0.128 ± 0.07 | I -0.184 ± 0.05 | D -0.092 ± 0.054 | Q -0.845 ± 0.28 | N 0.038 ± 0.14 | F -0.543 ± 0.15 | S -0.155 ± 0.058 | M -0.024 ± 0.08 | H -0.728 ± 0.41 | L -0.212 ± 0.066 | G -0.022 ± 0.034 | V -0.242 ± 0.045 | P -0.747 ± 0.042
